Source: patent US20260365743 (published 2026)

T1: hNPR2 (human, UniProt P20594)
T1 chain: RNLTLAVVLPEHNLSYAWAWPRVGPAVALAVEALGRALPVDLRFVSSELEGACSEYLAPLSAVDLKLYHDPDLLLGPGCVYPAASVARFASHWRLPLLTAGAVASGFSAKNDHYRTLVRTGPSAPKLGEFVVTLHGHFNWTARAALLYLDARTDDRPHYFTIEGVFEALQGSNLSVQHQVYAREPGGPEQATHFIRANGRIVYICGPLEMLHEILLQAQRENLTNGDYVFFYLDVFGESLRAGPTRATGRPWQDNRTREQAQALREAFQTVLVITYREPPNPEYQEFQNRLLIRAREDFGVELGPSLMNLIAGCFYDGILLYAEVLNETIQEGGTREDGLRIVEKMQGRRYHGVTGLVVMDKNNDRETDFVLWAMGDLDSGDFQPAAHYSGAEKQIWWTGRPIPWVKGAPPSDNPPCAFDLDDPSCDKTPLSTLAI

T2: hNPR3 (human, UniProt P17342)
T2 chain: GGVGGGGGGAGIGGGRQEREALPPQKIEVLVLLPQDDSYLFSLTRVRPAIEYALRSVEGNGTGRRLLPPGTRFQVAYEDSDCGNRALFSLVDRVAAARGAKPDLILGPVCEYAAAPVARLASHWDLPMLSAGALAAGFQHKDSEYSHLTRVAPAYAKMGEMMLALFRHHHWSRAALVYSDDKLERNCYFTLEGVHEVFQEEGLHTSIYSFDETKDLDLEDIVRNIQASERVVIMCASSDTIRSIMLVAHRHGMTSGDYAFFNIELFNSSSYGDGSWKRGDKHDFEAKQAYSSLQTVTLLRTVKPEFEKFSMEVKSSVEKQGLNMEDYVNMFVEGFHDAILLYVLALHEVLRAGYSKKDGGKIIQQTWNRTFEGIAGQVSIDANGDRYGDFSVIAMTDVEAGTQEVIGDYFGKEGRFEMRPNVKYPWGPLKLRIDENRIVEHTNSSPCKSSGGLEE


How the values were obtained:
Test in all cases: ELISA
[1] = target: T1, hNPR2
[2] = target: hNPR1 antigen (human)
[3] = target: T2, hNPR3

hNPR1 antigen (human), sequence (chain, as listed by the source): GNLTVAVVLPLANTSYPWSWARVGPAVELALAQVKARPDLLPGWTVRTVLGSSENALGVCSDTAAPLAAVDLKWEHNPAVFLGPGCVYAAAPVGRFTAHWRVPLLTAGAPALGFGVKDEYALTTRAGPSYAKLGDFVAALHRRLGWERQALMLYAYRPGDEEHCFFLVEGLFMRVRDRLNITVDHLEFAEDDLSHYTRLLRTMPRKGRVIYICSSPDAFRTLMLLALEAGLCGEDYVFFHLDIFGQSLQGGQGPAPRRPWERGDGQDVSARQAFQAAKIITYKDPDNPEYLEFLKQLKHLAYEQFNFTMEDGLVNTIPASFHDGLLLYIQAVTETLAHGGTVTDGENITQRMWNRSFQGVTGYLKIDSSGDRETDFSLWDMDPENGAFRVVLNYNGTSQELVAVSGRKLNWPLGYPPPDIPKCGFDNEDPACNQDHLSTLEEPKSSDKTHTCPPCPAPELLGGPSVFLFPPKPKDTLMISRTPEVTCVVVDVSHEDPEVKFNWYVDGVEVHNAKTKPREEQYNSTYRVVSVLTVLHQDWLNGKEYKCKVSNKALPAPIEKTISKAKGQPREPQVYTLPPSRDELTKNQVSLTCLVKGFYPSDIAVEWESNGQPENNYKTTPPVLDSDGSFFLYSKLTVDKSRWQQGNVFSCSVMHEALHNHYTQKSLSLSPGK

binding result [1]	binding result [2]	binding result [3]	Binder
no binding		no binding	Hu135H3L1 (antibody, V domains shown) VH: DVKLVESGEGLVKPGGSLRLSCAASGFSISTYGMSWVRQAPGKRLEWVAYINSGGNYIYYADSVKGRFTISRDNAKNSLYLQMNSLRAEDTAVYYCTRDRTTIVVHWYFDVWGQGTTVTVSS VL: DIQLTQSPSSLSASVGDRVTITCSASSSLNFMHWYQQKPGKSPKRWIYDTSKLASGVPSRFSGSGSGTDYTLTISSLQPEDFATYYCHQRSSTFGGGTKVEIK
no binding		no binding	Hu102H4L6 (antibody, V domains shown) VH: DVKLVESGEGLVKPGGSLRLSCAASGFTFSSYAMSWVRQAPGKRLEWVAYISRGGDYIYYADSVKGRFTISRDNAKNSLYLQMNSLRAEDSAVYYCTRDQTTVVVHWYFDVWGQGTTVTVSS VL: DIQLTQSPSSLSASVGDRVTITCSASSSINYMHWYQQKPGKSPKRWIYDTSKLASGVPSRFSGSGSGTDYTLTISSLQPEDFATYYCHQRNSYTFGGGTKVEIK

The remaining lines, values behind:

Binder	binding result [1]	binding result [2]	binding result [3]
RC25 V (antibody, V domains shown) VH: QVQLVQSGAEVKKPGASVKVSCKASGYTFTNSWIGWFRQAPGQGLEWIGDIYPGGGYTNYNEIFKGKATMTADTSTNTAYMELSSLRSEDTAVYYCSRGIPGYAMDYWGQGTLVTVSS VL: DIQMTQSPSSLSASVGDRVTMSCKSSQSLLNSGDQKNYLTWYQQKPGKAPKLLIYWASTGESGVPSRFSGSGSGTDFTFTISSLQPEDIATYYCQNDYSYPWTFGQGTKVEIKR	no binding	no binding	no binding
Hu128H3L1-6 (antibody, V domains shown) VH: EVQLVQSGAEVKKPGASVKVSCKASGYTFTSYWMHWVRQAPGQGLEWMGRIDPNSGVTKYNEKFKSRVTLTVDKPSSPAYMELSSLRSEDTAVYYCARSSYLGRYFDVWGQGTTVTVSS VL: EIVLTQSPATLSLSPGERATLKCSATSSVSYMYWYQQKPGQAPRLLIYDTYNLGSRIPARFSGSGSGTDYTLTISRLEPEDFAVYYCQQWSSYPPTFGQGTKLEIK	no binding		no binding
Hu140H5L5-11 (antibody, V domains shown) VH: QVQLVQSGAEVKKPGASVKVSCKASGYTFTSYWMHWVRQAPGQGLEWMGRIDPNSGVTKYNEKFKSRVTLTVDKPSSPAYMELSSLRSEDTAVYYCARSGGLRRYFDVWGQGTTVTVSS VL: EIVLTQSPATLSLSPGERAQLSCSASSSVSYMYWYQQKPGQAPRLLIYDTYNLASGVPDRFSGSGSGTSYTLTISRLEPEDFAVYYCQQWSSYPPTFGAGTKLEIK	no binding		no binding
